Test results: PMC3185043

Legend:
Test in all cases: pull-down SILAC MS
[1] = system: MBD2 (U937 nuclear extract) (Homo sapiens); conditions: 5-methylcytosine at CpG (M.SssI); EMSA: 20 mM HEPES pH 7.9, 1 mM EDTA, 3 mM MgCl2, 10 mM beta-mercaptoethanol, 10% glycerol, 0.1% Triton X-100, 2 ug BSA, 10 ng poly(dI-dC), 30 min on ice …; scale: H/L ratio methylated/unmethylated
[2] = system: MeCP2 (U937 nuclear extract) (Homo sapiens); conditions: reverse ratio 0.18572; 5-methylcytosine at CpG (M.SssI); EMSA: 20 mM HEPES pH 7.9, 1 mM EDTA, 3 mM MgCl2, 10 mM beta-mercaptoethanol, 10% glycerol, 0.1% Triton X-100, 2 ug BSA, 10 ng poly(dI-dC), 30 min on ice …; scale: H/L ratio methylated/unmethylated
[3] = system: RBP-J (U937 nuclear extract) (Homo sapiens); conditions: reverse ratio 0.11974; 5-methylcytosine at CpG (M.SssI); EMSA: 20 mM HEPES pH 7.9, 1 mM EDTA, 3 mM MgCl2, 10 mM beta-mercaptoethanol, 10% glycerol, 0.1% Triton X-100, 2 ug BSA, 10 ng poly(dI-dC), 30 min on ice …; scale: H/L ratio methylated/unmethylated

## GSTP1 CpG-island multimer, methylated (pull-down)
[1]
  binding signal: 12.9
[2]
  binding signal: 4.54
[3]
  binding signal: 6.21
